Positions count from the first letter of the chain named. Read-outs that look alike come from different tables or passages of the source. Each block holds one binder with its values, some of them ahead of it.
Columns and labels:
[1] = molecular target: T1, human SEZ6 expressed on stably transfected CHO-K1 cells (human, UniProt Q53EL9 20-994); assay: flow cytometry on CHO-K1 cells expressing human SEZ6
T1 construct: also called CHO-SEZ6; hSEZ6
T1 sequence: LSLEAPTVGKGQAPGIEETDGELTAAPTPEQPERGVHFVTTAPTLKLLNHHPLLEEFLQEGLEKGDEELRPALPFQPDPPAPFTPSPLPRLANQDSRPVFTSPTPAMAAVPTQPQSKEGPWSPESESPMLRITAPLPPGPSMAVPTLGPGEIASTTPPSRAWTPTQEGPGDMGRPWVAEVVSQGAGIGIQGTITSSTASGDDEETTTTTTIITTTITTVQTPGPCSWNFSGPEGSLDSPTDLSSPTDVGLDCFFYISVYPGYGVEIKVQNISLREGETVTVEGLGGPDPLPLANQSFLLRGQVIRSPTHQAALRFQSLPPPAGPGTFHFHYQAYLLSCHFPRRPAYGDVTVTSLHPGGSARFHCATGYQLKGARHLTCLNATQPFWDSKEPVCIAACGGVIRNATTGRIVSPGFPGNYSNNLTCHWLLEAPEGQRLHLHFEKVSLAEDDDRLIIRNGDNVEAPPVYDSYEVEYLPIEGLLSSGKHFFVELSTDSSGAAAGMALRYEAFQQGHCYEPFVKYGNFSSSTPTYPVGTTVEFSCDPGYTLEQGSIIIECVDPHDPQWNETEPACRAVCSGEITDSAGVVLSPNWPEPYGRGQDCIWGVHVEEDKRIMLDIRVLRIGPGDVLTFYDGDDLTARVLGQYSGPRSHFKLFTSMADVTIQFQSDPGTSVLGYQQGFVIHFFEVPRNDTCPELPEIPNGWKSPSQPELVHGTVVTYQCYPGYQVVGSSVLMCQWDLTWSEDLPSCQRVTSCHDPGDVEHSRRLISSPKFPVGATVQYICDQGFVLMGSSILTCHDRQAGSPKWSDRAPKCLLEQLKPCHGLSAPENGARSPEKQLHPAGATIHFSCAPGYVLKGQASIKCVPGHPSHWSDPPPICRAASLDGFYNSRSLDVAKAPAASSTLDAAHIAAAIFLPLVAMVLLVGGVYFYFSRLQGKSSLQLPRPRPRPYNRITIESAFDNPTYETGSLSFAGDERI

[2] = molecular target: T1, human SEZ6 expressed on stably …; assay: as above; remark: listed apart in the source
[3] = molecular target: T1, human SEZ6 expressed on stably …; assay: as above; remark: listed apart in the source
[4] = molecular target: T2, cynomolgus monkey SEZ6 expressed on stably transfected CHO-K1 cells (cynomolgus monkey, UniProt Q53EL9 20-994 (human entry)); assay: flow cytometry on CHO-K1 cells expressing cynomolgus monkey SEZ6
T2 construct: also called CHO-cynoSEZ6; monkey SEZ6 on the cell membrane
T2 chain: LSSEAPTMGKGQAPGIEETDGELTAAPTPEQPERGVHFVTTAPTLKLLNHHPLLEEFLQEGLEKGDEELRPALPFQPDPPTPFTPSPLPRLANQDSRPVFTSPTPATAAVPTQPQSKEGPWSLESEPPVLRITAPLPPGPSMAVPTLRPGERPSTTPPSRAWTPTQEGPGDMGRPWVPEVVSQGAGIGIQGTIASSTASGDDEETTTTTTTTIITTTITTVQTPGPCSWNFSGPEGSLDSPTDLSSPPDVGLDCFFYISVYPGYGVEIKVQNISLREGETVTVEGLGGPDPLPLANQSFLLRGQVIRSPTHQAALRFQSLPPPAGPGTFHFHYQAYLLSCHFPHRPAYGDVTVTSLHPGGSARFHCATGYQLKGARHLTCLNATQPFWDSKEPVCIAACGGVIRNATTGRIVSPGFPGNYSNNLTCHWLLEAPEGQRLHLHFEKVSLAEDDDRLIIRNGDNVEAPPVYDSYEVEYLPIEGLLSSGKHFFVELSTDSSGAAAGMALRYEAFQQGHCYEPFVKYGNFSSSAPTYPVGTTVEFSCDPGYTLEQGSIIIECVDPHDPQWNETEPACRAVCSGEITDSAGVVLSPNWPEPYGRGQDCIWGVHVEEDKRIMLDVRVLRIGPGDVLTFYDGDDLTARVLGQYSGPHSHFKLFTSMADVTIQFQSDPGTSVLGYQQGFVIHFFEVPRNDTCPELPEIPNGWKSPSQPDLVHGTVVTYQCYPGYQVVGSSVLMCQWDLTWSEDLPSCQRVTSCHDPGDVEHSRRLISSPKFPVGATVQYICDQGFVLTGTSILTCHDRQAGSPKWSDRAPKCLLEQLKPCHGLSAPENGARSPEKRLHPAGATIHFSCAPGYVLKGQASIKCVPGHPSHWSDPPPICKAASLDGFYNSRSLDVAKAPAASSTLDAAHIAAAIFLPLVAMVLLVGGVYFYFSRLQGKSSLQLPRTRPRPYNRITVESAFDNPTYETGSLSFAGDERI

B1: cAb314 (Fc fusion)
VHH: HVQLVESGGGSVQAGGSLRLSCAVSGFTSSRGWMAWFRQAPGKEREGVAVIGRRSGDIYYADSLKGRFTISHDSTENTLYLQMNNLKPEDTATYYCAVGDQAGHVLTSSPYRYWGQGTQVTVSS
notes: VHH-hFc expressed in 293 cells; Parent of PR0071; also called chimeric nanobody; camel-derived SEZ6 chimeric antibody; not shown: The human Fc (hFc) of the VHH-hFc construct
EC50 [1]: 380 pM | MFImax [1]: 8480

B2: PR3132 (antibody, human IgG1, kappa, V domains shown)
VH: EVQLVQSGAEVKKPGASVKISCKASGYTFTDYYINWMRQAPGQGLEWIGWIFPGSDNPYYNEMFKDRVTVTVDKSTSTVYMELSSLRSEDTAVYFCARGRYYGLYTMDYWGQGTLVTVSS
VL: DIQMTQSPSSLSASVGDRVTITCRASQDIRNYLNWYQQKPGKAPKFLIYYTSRLHSGVPSRFSGSGSGTDFTLTISSLQPEDFATYYCQQGNTLPWTFGGGTKVEIKR
notes: Humanized, human IgG1, kappa; also called humanized antibody of cAb3056
EC50 [2]: 1720 pM | MFImax [2]: 1210

B4: PR3121 (antibody, human IgG1, kappa, V domains shown)
VH: EVQLVQSGAEVKKPGSSVKVSCKASGYTFSIYWMHWVRQAPGQGLEWIGMIHPNSGSTNYNEKFKSRATLTVDKSTSTAYMELSSLRSEDTAVYYCARGGNYVAMDYWGQGTLVTVSS
VL: DIQMTQSPSSLSASVGDRVTITCTASSSVSSSYLHWYQQKPGKAPKLLIYSTSNLASGVPSRFSGSGSGTDFTLTISSLQPEDFATYYCHQYHRSLTFGGGTKVEIKR
notes: Humanized, human IgG1, kappa; also called humanized antibody of cAb3014
EC50 [2]: 450 pM | MFImax [2]: 1020

B5: PR3123 (antibody, human IgG1, kappa, V domains shown)
VH: B4 VH
VL: B4 VL with M4L, I21M, A44S, L48W, F72Y
notes: Humanized, human IgG1, kappa; Only the order of listing separates it from PR3121; also called humanized antibody of cAb3014
EC50 [2]: 560 pM | MFImax [2]: 966

B6: cAb025 (Fc fusion)
VHH: EVQLVESGGGSVQPGGSLRLSCEASGLTYNKDCMAWFRQAPGKEREGVAIINGVGRTRYADSVKGRFTISKDNAKNTLYLQMNNLKPEDTAMYYCAAQRASSSCGSLSRAWYDYWGRGTQVTVSS
notes: VHH-hFc expressed in 293 cells; Parent of PR0069; also called chimeric nanobody; camel-derived SEZ6 chimeric antibody; not shown: The human Fc (hFc) of the VHH-hFc construct
EC50 [1]: 230 pM | MFImax [1]: 6600

B8: cAb3006 (antibody, V domains shown)
VH: QVQLQQSGAELARPGASVTLSCKASGYTFTDYEMHWVKETPVDGLEWIGGIDPETDNTVYNQKFKVKAILTEDKSSRIAYMELRSLTSEDSAVYYCTRGDWYFDVWGTGTTVTVSS
VL: DIVMSQSPSSQAVSVGEKVTMSCKSSQSLLNSRTRENYLAWYQQKAGQSPKLLIYWASTRDSGVPDRFTGSGSGTDFTLTINSVQAEDLAVYYCKQSYNLFTFGSGTKLEIK
EC50 [3]: 350 pM | MFImax [3]: 4830 | EC50 [4]: 410 pM | MFImax [4]: 15000

B9: cAb3005 (antibody, V domains shown)
VH: B8 VH with T28K, D43N, D56E, I78T
VL: B8 VL with D76A
EC50 [3]: 520 pM | MFImax [3]: 4920 | EC50 [4]: 410 pM | MFImax [4]: 14700

B10: cAb3009 (antibody, V domains shown)
VH: QVQLQQSGAELVRPGASVTLSCKASGYTFTDYEMHWVRQTPVHGLEWIGGIDPESDNTVYNQKFKGKVTLTEDKSSSTAYMEFRSLTSEDSAVYYCTRGDWYFDVWGTGTTVTVSS
VL: B8 VL with S22T, A46P, D61E, T75A, N82S, K95G
EC50 [3]: 810 pM | MFImax [3]: 5420 | EC50 [4]: 430 pM | MFImax [4]: 15600

B11: cAb3003 (antibody, V domains shown)
VH: B10 VH with D31G, R38K, S55T, V68A, T69I, F83L, S85R, V105I
VL: B8 VL with M4L, A46P, D61E, N82S, K95Q, K108I
EC50 [3]: 680 pM | MFImax [3]: 5110 | EC50 [4]: 420 pM | MFImax [4]: 14300

Second part, the binder after the results:

EC50 [3]: 420 pM | MFImax [3]: 6560 | EC50 [4]: 950 pM | MFImax [4]: 14600
B3: cAb3056 (antibody, V domains shown)
VH: QVQLQQSGPELMKPGASVKISCKASGYTFTDYYINWMKQRPGQGLEWIGWIFPGSDNPYYNEMFKDKATVSVDKSSSAVFMLLTSLTSEDSAVYFCARGRYYGLYTMDYWGQGTSVTVSS
VL: DIQMTQTTSSLSASLGDRVTISCRASQDIRNYLNWYQQKADGTVKFLIYYTSRLHSGVPSRFSGSGSGTDFSLTISNLEQEDVATYFCQQGNTLPWTFGGGTKVEIK

EC50 [3]: 420 pM | MFImax [3]: 5180 | EC50 [4]: 540 pM | MFImax [4]: 15200
B7: cAb3031 (antibody, V domains shown)
VH: DVQLQESGPGLVKPSQSLSLTCSVTGQSITSGYFWNWIRQLPGNKLEWMGHIRYDGNNNYNPSLKNRVSITRDTSKNQFFLKLNSVTTEDTATYYCARWLLRYYAMDSWGQGTSVTVSS
VL: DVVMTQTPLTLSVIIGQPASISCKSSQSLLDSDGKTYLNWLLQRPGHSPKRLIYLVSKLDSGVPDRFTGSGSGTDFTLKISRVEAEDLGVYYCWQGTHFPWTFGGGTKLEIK

EC50 [3]: 130 pM | MFImax [3]: 10100 | EC50 [4]: 370 pM | MFImax [4]: 17300
B12: cAb3034 (antibody, V domains shown)
VH: QVQLQQSGAELARPGASVKMSCKASGYTFTSYTMHWVKQRPGQGLEWIGYINPRSDYTKYNQKVKDKATLTADKSSSTAYMQLSSLTSEDSAVYYCARGGLGLDYWGQGTTLTVSS
VL: DIQMTQSPSSLSASLGERVSLTCRASQEISGYLSWLQQTPDGTIKRLIYAASTLHSGVPKRFSGSRSGSDYSLTISSLESEDFAGYYCLQYASYPYTFGGGTKLEIK

EC50 [3]: 60 pM | MFImax [3]: 5180 | EC50 [4]: 480 pM | MFImax [4]: 16200
B13: cAb3046 (antibody, V domains shown)
VH: QVQLQQSGAELARPGASVKMSCKASGYTFTSYTMHWVKQRPGQGLEWIGYINPSSDYTKYNQKFKGKATMTADKSSSTAYMQLSSLTSEDSAVYYCGRGLVPFAYWGQGTLVTVSA
VL: B12 VL with S34I, T39K, H55D, F62V, G85D, Y96L, I106L

EC50 [3]: 850 pM | MFImax [3]: 3030 | EC50 [4]: 650 pM | MFImax [4]: 13400
B14: cAb3014 (antibody, V domains shown)
VH: QVQLQQPGAELVKPGASVKLSCKASGYTFSIYWMHWVKQRPGQGLEWIGMIHPNSGSTNYNEKFKSKATLTVDKSSSTAYMQLSSLTSEDSAVYYCARGGNYVAMDYWGQGTSVTVSS
VL: QIVLTQSPAIMSASLGERVTMTCTASSSVSSSYLHWYQQKPGSSPKLWIYSTSNLASGVPARFSGSGSGTSYSLTISSMEAEDAATYYCHQYHRSLTFGSGTKLEIK

From patent publication EP4714971A1 (Shanghai Hansoh Biomedical Co., Ltd., dated 2024)
